The assay concerns the target T1, Mycobacterium proteasomal ATPase (Mpa), untagged recombinant (Mycobacterium tuberculosis, UniProt P9WQN5 1-609).
T1 sequence: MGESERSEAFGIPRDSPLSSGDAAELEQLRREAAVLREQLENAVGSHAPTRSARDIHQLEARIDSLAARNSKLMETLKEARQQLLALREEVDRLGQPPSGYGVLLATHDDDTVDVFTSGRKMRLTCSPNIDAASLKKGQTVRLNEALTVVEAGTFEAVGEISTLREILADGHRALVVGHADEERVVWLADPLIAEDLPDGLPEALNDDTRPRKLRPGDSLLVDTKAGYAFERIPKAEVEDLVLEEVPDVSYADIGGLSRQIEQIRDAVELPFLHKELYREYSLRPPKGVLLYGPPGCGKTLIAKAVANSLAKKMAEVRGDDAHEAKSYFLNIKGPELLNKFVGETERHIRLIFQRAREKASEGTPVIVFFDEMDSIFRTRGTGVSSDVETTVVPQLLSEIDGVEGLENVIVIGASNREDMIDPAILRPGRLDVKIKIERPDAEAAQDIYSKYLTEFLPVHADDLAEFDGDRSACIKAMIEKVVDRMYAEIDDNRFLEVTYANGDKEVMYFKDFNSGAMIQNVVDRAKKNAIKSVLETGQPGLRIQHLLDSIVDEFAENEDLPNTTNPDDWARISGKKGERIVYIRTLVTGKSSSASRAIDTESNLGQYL
The experiment in a line: Ni-NTA agarose pull-down, Coomassie gel and anti-Mpa immunoblot. In general terms: Immunoblotting shows a protein as a band on a membrane.

B1: [change] (other)
chain: MAQEQTKRGGGGGDDDDIAGSTAAGQERREKLTEETDDLLDEIDDVLEENAEDFVRAYVQKGGQ
Turning to B1, the binding result is reported as “binds”.

These data come from patent US20100055715A1 (published 2010).
